Experimental data taken from US20240317834A1, “COMPOSITIONS AND METHODS FOR NEUROLOGICAL DISEASES” (CODA BIOTHERAPEUTICS, INC., priority 2020, published 2024).

Legend:
Type in all cases: cell-based
HEK293T cells = assay: High throughput electrophysiology (IonFlux automated patch clamp), EC50 of engineered receptors to ligands
Experimental: To confirm the EC50s determined by plate reader as well as develop a better understanding of maximum current flow, the engineered receptors were subjected to high throughput electrophysiology system, as described below. For HEK293T studies, cDNAs encoding ion channels were cloned into pcDNA3.1 using standard recombination techniques. HEK293T cells from Clontech (Lenti-X™ 293T Cell Line) were cultured in DMEM supplemented with 10% FBS and 1% Pen/Strep to 40-50% confluence using standard cell culture protocols, transfected with ion channel plasmids at a concentration of 18 μg per 15 cm dish using Fugene 6, and grown for an additional 24 hours. Cells were then assayed on an electrophysiological system (IonFluxHT and/or Mercury, Fluxion Biosciences) in which dose-response relationships may be assessed through a microfluidics-based platform for establishing whole cell configurations. Ensemble plates were primed with extracellular buffer (140 mM NaCl, 5 mM KCl, 2 mM CaCl2), 1 mM MgCl2, 10 mM HEPES, and 10 mM glucose, pH 7.2 with NaOH, mOsm 310), intracellular buffer (145 mM CsCl, 2 mM CaCl2), 2 mM MgCl2, 10 mM HEPES, and 10 mM EGTA, pH 7.2 with CsOH, mOsm 305), as adapted from Lynagh and Lynch, and test compounds (stocks prepared fresh) diluted in extracellular buffer. Cells were then released from the plate with Accutase, centrifuged, resuspended in extracellular buffer, and loaded into Ensemble plates. Cells were then subjected to a standard protocol for priming, trapping, breaking, and establishing whole cell configuration, with cells held at −60 mV throughout the recording. After recording baseline, progressive doses of test compounds were applied using the IonFlux software to assess dose response relationships. Data were then analyzed off-line using custom Python scripts to convert data to .csv format, re-plot traces, and apply QC measurements to reject unstable recordings (i.e. thresholding based on access resistance and/or standard deviation in baseline, as well as artifact rejection). Peak currents were then calculated, and population data were fit using a 4-parameter logistic equation as described by the Hill Equation. Currents were measured on an automated patch clamp system (Fluxion Biosciences) following 1 second addition of drug and the EC50 values calculated are tabulated below in Table 22 below and Table 21 above (in Example 2).

Lenti-X 293T cells = assay: YFP fluorescence quenching anion reporter plate reader assay of engineered receptors stimulated with acetylcholine or a non-native ligand; details: for percent quench of YFP fluorescence, 10 uM ach: acetylcholine 10 uM; for percent quench of YFP fluorescence, 100 uM ach: acetylcholine 100 uM; for percent quench of YFP fluorescence, 1 mM ach: acetylcholine 1 mM; for percent quench of YFP fluorescence, 3 mM ach: acetylcholine 3 mM
How it was run: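 YFP quench was followed for about 1 min 43 s after ligand delivered in iodide-based ECS, pH 7.2. Values are end-of-read fluorescence (last 10 s) divided by the pre-ligand baseline (15 s). Cells were LX293T, transfected with receptor DNA a day before the assay.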

rat hippocampal neurons [1] = assay: Evoked rheobase shift in rat hippocampal neurons (current clamp)
Experimental: (§1) For manual patch clamp experiments, Cells plated on coverslips were visualized at 10× and 40× on an inverted fluorescence microscope (Olympus). Recordings were made with an Axopatch 200B amplifier and Digidata 1550B (Molecular Devices) at RT using 3-6 MOhm glass patch electrodes (Sutter, BF150-86-10). Unless otherwise stated, recordings were made in extracellular solution (ECS) containing: 140 mM sodium chloride, 4 mM potassium chloride, 1 mM magnesium chloride, 2 mM calcium chloride, 10 mM HEPES, and 10 mM D-(+)-glucose (pH=7.3 with sodium hydroxide, osmolarity=305−315 mOsm). An 8-line reservoir (AutoMate Scientific) in combination with an 8-channel zero-dead-volume perfusion pencil (AutoMate Scientific) was used for perfusion. Data was acquired using pClamp software (Molecular Devices). Traces were either analyzed in Clampfit (Molecular Devices) or using custom Python code. Plotting and statistics were performed in GraphPad Prism.
No holding current was applied to the membrane for cells included in the final datasets. Data acquisition settings and analysis methods were the same as for the DRG rheobase experiments.

rat hippocampal neurons [2] = assay: Spontaneous firing rate of rat hippocampal neurons (current clamp)
Experimental: as §1, with “Plotting and statistics were performed in GraphPad Prism.” left out
Spontaneous activity was recorded in gapfree mode, in the presence and absence of a compound. […] For both methods, minimum height, average height, maximum height were measured and frequency was calculated as the number of events in the epoch divided by the length of time of the epoch. For Clampfit, the resting membrane potential was measured at 3 points between events and averaged for each epoch. […] For both methods, membrane potential was corrected for the calculated liquid junction potential. […]

B1: CODA536: engineered chimeric LGIC receptor, L131D, S172D in SEQ ID NO: 33 (protein)
chain: MRCSPGGVWLALAASLLHVSLQGEFQRKLYKELVKNYNPLERPVANDSQPLTVYFSLSLLQIMDVDEKNQVLTTNIWLQMSWTDHYLQWNVSEYPGVKTVRFPDGQIWKPDILLYNSADERFDATFHTNVDVNSSGHCQYLPPGIFKSSCPMDLKNFPMDVQTCKLKFGSWDYGGWSLDLQMQEADISGYIPNGEWDLVGIPGKRSERFYECCKEPYPDVTFTVTMRRRMGYYLIQMYIPSLLIVILSWISFWINMDAAPARVGLGITTVLTMTTQSSGSRASLPKVSYVKAIDIWMAVCLLFVFSALLEYAAVNFVSRQHKELLRFRRKRRHHKSPMLNLFQEDEAGEGRFNFSAYGMGPACLQAKDGISVKGANNSNTTNPPPAPSKSPEEMRKLFIQRAKKIDKISRIGFPMAFLIFNMFYWIIYKIVRREDVHNQ
modifications: synthetic sequence of chimeric LGIC
HEK293T cells; ligand AZD-0328
  fold increased potency towards AZD-0328 compared with wild type receptor: at least 10 fold
HEK293T cells; ligand RG-3487
  fold increased potency towards RG-3487 compared with wild type receptor: at least 10 fold
Lenti-X 293T cells; 1 nM brd
  YFP fluorescence quenching using TC-5619/Bradanicline: −1.24%
Lenti-X 293T cells; 3 nM brd
  YFP fluorescence quenching using TC-5619/Bradanicline: 0.25%
Lenti-X 293T cells; 10 nM brd
  YFP fluorescence quenching using TC-5619/Bradanicline: −2.57%
Lenti-X 293T cells; 30 nM brd
  YFP fluorescence quenching using TC-5619/Bradanicline: 0.78%
Lenti-X 293T cells; 30 nM fac
  YFP fluorescence quenching using Facinicline: 24.15
Lenti-X 293T cells; 50 nM abt
  YFP fluorescence quenching using ABT-126: −3.19%
Lenti-X 293T cells; 100 nM CNL002
  YFP fluorescence quenching using CNL002: 71.72%
Lenti-X 293T cells; 100 nM abt
  YFP fluorescence quenching using ABT-126: 7.58%
Lenti-X 293T cells; 100 nM azd0328
  YFP fluorescence quenching using AZD-0328: 51.44%
Lenti-X 293T cells; 100 nM brd
  YFP fluorescence quenching using TC-5619/Bradanicline: 4.51%
Lenti-X 293T cells; 300 nM abt
  YFP fluorescence quenching using ABT-126: −1.65%
Lenti-X 293T cells; 300 nM azd0328
  YFP fluorescence quenching using AZD-0328: 77.12%
Lenti-X 293T cells; 300 nM brd
  YFP fluorescence quenching using TC-5619/Bradanicline: 30.97%
Lenti-X 293T cells; 300 nM fac
  YFP fluorescence quenching using Facinicline: 80.17
Lenti-X 293T cells; 1 uM CNL002
  YFP fluorescence quenching using CNL002: 77.26%
Lenti-X 293T cells; 1 uM abt
  YFP fluorescence quenching using ABT-126: 31.29%
Lenti-X 293T cells; 1 uM brd
  YFP fluorescence quenching using TC-5619/Bradanicline: 44.41%
Lenti-X 293T cells; 1 uM tc6987
  YFP fluorescence quenching using TC-6987: −18.24
Lenti-X 293T cells; 10 uM fac
  YFP fluorescence quenching using Facinicline: 81.34
Lenti-X 293T cells; 10 uM tc6987
  YFP fluorescence quenching using TC-6987: −23.06
Lenti-X 293T cells; 30 uM CNL002
  YFP fluorescence quenching using CNL002: 77.5%
Lenti-X 293T cells; 30 uM azd0328
  YFP fluorescence quenching using AZD-0328: 79.26%
Lenti-X 293T cells; 30 uM fac
  YFP fluorescence quenching using Facinicline: 79.9
Lenti-X 293T cells; 500 uM tc6987
  YFP fluorescence quenching using TC-6987: −19.3
Lenti-X 293T cells; TC-6683 30 nM
  percent quench of YFP fluorescence, 30 nM TC-6683: −22.285%
Lenti-X 293T cells; TC-6683 300 nM
  percent quench of YFP fluorescence, 300 nM TC-6683: −23.926%
Lenti-X 293T cells; TC-6683 3 uM
  percent quench of YFP fluorescence, 3 uM TC-6683: −20.514%
Lenti-X 293T cells; TC-6683 30 uM
  percent quench of YFP fluorescence, 30 uM TC-6683: −3.078%
Lenti-X 293T cells; TC-6683 100 uM
  percent quench of YFP fluorescence, 100 uM TC-6683: 7.37%
Lenti-X 293T cells
  percent quench of YFP fluorescence, 10 uM ach: −12.91%
  percent quench of YFP fluorescence, 100 uM ach: −20.88%
  percent quench of YFP fluorescence, 1 mM ach: 79.85%
  percent quench of YFP fluorescence, 3 mM ach: 79.98%

B2: CODA1140: engineered chimeric LGIC receptor, R101F, L131N, S172D in SEQ ID NO: 33 (protein)
chain: MRCSPGGVWLALAASLLHVSLQGEFQRKLYKELVKNYNPLERPVANDSQPLTVYFSLSLLQIMDVDEKNQVLTTNIWLQMSWTDHYLQWNVSEYPGVKTVFFPDGQIWKPDILLYNSADERFDATFHTNVNVNSSGHCQYLPPGIFKSSCPMDLKNFPMDVQTCKLKFGSWDYGGWSLDLQMQEADISGYIPNGEWDLVGIPGKRSERFYECCKEPYPDVTFTVTMRRRMGYYLIQMYIPSLLIVILSWISFWINMDAAPARVGLGITTVLTMTTQSSGSRASLPKVSYVKAIDIWMAVCLLFVFSALLEYAAVNFVSRQHKELLRFRRKRRHHKSPMLNLFQEDEAGEGRFNFSAYGMGPACLQAKDGISVKGANNSNTTNPPPAPSKSPEEMRKLFIQRAKKIDKISRIGFPMAFLIFNMFYWIIYKIVRREDVHNQ
modifications: synthetic sequence of chimeric LGIC
Lenti-X 293T cells; 1 nM CNL001, first column
  YFP fluorescence quenching using CNL001: 52.592%
Lenti-X 293T cells; 1 nM CNL001, second column
  YFP fluorescence quenching using CNL001: 61.248%
Lenti-X 293T cells; 1 nM CNL002
  YFP fluorescence quenching using CNL002: 0.337%
Lenti-X 293T cells; 3 nM var, first column
  YFP fluorescence quenching using Varenicline: −6.169
Lenti-X 293T cells; 3 nM var, second column
  YFP fluorescence quenching using Varenicline: −10.445
Lenti-X 293T cells; 10 nM CNL001, first column
  YFP fluorescence quenching using CNL001: 71.678%
Lenti-X 293T cells; 10 nM CNL001, second column
  YFP fluorescence quenching using CNL001: 71.881%
Lenti-X 293T cells; 10 nM CNL002
  YFP fluorescence quenching using CNL002: 59.894%
Lenti-X 293T cells; 30 nM var, first column
  YFP fluorescence quenching using Varenicline: −9.679
Lenti-X 293T cells; 30 nM var, second column
  YFP fluorescence quenching using Varenicline: −10.878
Lenti-X 293T cells; 50 nM CNL001, first column
  YFP fluorescence quenching using CNL001: 73.807%
Lenti-X 293T cells; 50 nM CNL001, second column
  YFP fluorescence quenching using CNL001: 75.649%
Lenti-X 293T cells; 50 nM CNL002
  YFP fluorescence quenching using CNL002: 76.501%
Lenti-X 293T cells; 50 nM abt
  YFP fluorescence quenching using ABT-126: −7.87%
Lenti-X 293T cells; 100 nM CNL001, first column
  YFP fluorescence quenching using CNL001: 76%
Lenti-X 293T cells; 100 nM CNL001, second column
  YFP fluorescence quenching using CNL001: 76.329%
Lenti-X 293T cells; 100 nM CNL002
  YFP fluorescence quenching using CNL002: 79.03%
Lenti-X 293T cells; 100 nM abt
  YFP fluorescence quenching using ABT-126: −5.35%
Lenti-X 293T cells; 300 nM abt
  YFP fluorescence quenching using ABT-126: −3.67%
Lenti-X 293T cells; 300 nM var, first column
  YFP fluorescence quenching using Varenicline: −9.572
Lenti-X 293T cells; 300 nM var, second column
  YFP fluorescence quenching using Varenicline: −8.873
Lenti-X 293T cells; 500 nM var, first column
  YFP fluorescence quenching using Varenicline: −14.656
Lenti-X 293T cells; 500 nM var, second column
  YFP fluorescence quenching using Varenicline: −11.304
Lenti-X 293T cells; 1 uM CNL001, first column
  YFP fluorescence quenching using CNL001: 76.168%
Lenti-X 293T cells; 1 uM CNL001, second column
  YFP fluorescence quenching using CNL001: 74.076%
Lenti-X 293T cells; 1 uM CNL002
  YFP fluorescence quenching using CNL002: 82.85%
Lenti-X 293T cells; 1 uM abt
  YFP fluorescence quenching using ABT-126: 3.64%
Lenti-X 293T cells; 1 uM var, first column
  YFP fluorescence quenching using Varenicline: −13.996
Lenti-X 293T cells; 1 uM var, second column
  YFP fluorescence quenching using Varenicline: −16.128
Lenti-X 293T cells; 10 uM abt
  YFP fluorescence quenching using ABT-126: 5.91%
Lenti-X 293T cells
  percent quench of YFP fluorescence, 10 uM ach: −20.07%
  percent quench of YFP fluorescence, 100 uM ach: −25.8%
  percent quench of YFP fluorescence, 1 mM ach: 9.02%
  percent quench of YFP fluorescence, 3 mM ach: 45%
Lenti-X 293T cells; acetylcholine 30 uM
  percent quench of YFP fluorescence, 30 uM ach: −16.92%
Lenti-X 293T cells; acetylcholine 300 uM
  percent quench of YFP fluorescence, 300 uM ach: −11.21%
Rat hippocampal neurons [1]; +CNL002 @ EC90
  Rheobase Shift Evoked; Rat Hippocampal Neurons, +CNL002 @ EC90: 296.9 ± 72.65 pA
Rat hippocampal neurons [1]; Baseline, no ligand
  Rheobase Shift Evoked; Rat Hippocampal Neurons, Baseline: 40.63 ± 10.50 pA
Rat hippocampal neurons [2]; +CNL002 @ EC90
  Firing Rate Spontaneous; Rat Hippocampal Neurons, +CNL002 @ EC90: 0.71 ± 0.29 Hz
Rat hippocampal neurons [2]; Baseline, no ligand
  Firing Rate Spontaneous; Rat Hippocampal Neurons, Baseline: 3.29 ± 0.75 Hz
